# Measurements published in patent US20190359653A1, “SELECTIVE PEPTIDE INHIBITORS OF FRIZZLED” (Genentech, Inc., priority 2016, published 2019).
# Key:
# FZD7 CRD-Fc = target: T1, FZD7 CRD-Fc (Homo sapiens, UniProt O75084); test: spot phage ELISA against FZD7 CRD-Fc; format: binding; conditions: for SIGNAL: NOISE RATIO FZD7 CRD: spot phage ELISA signal against FZD7 CRD over ELISA signal against BSA, Tables 3 and 4; for FZD7 CRD-Fc phage-binding signal: signal minus noise (BSA); for FZD7 CRD-Fc phage-binding signal / FZD7 CRD-Fc S/N: shotgun scanning variants of Fz7-21, Table 5; for FZD7 CRD-Fc S/N: signal to noise ratio
# T1 construct: hFZD7 CRD-Fc (cat no. 6178-FZ); purchased R&D systems 6178-FZ
# Protocol: (§1) Phage pools of linear peptide libraries (Stanger, K. et al. Allosteric peptides bind a caspase zymogen and mediate caspase tetramerization. Nat Chem Biol 8, 655-660 (2012)) were cycled through rounds of binding selections with hFZD7 CRD-Fc following standard protocols (Tonikian et al. (2007) Nat Protoc 2, 1368-1386). Herceptin (10 μM) was included in sorting solution to block potential Fc binders during all rounds of sorting. After four rounds of binding selection, individual phage clones were analyzed in a high-throughput spot phage ELISA using plate-immobilized FZD7 CRD-Fc as target or off-target for specificity test (hFZD8 CRD-Fc and Herceptin). To measure off-target affinity, duplicate phage particle were assayed against BSA to measure non-specific binding. Clones with a phage-binding signal >0.5 and signal-to-noise ratio >10 were considered to be positive clones and were subjected to DNA sequence analysis. General data handling was done using Microsoft Excel 2010 unless otherwise noted.
# (§2) In order to investigate the role of FZD7 in intestinal stem cell function, experiments were performed to identify ligands that selectively bind FZD7 CRD. A naïve linear peptide library (4-16 amino acids in length) and a cyclic peptide library were screened via phage display against FZD7 CRD-Fc. Peptides found to bind FZD7 CRD-Fc were then screened via spot phage ELISA against FZD7 CRD-Fc, FZD8 CRD-Fc, and Herceptin to identify candidates that bind FZD7 CRD but not FZD8 CRD or herceptin. The amino acid sequences of candidate FZD7 CRD-binding linear peptides are shown in Table 3 below, and the amino acid sequences of candidate FZD7 CRD-binding cyclic peptides are shown in Table 4.
# (§3) Briefly, sixty Fz7-21-derived peptides (see Table 5), each containing at least one random alanine and/or valine/and/or aspartic acid and/or serine substitution, were generated and screened via spot phage ELISA (i.e., as described above) against FZD7 CRD-Fc and Herceptin.
# Herceptin = test: spot phage ELISA against Herceptin (off-target); format: binding; conditions: for SIGNAL: NOISE RATIO HERCEPTIN: spot phage ELISA signal against Herceptin over ELISA signal against BSA, Tables 3 and 4; for HERCEPTIN S/W: signal minus noise (BSA); for HERCEPTIN S/W / HERCEPTIN S/N: Table 5; for HERCEPTIN S/N: signal to noise ratio
# Protocol: as §1, §2, §3
# FZD8 CRD-Fc = target: T2, FZD8 CRD-Fc (Homo sapiens, UniProt Q9H461); test: spot phage ELISA against FZD8 CRD-Fc (off-target); format: binding; conditions: spot phage ELISA signal against FZD 8 CRD over ELISA signal against BSA; Tables 3 and 4
# T2 construct: hFZD8 CRD-Fc (cat no. 6129-FZ); purchased R&D systems 6129-FZ
# T2 sequence (Q9H461 30-151 limits assumed): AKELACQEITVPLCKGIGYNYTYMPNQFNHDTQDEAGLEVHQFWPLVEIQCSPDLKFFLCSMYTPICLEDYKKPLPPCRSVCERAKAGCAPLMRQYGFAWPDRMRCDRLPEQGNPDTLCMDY
# Protocol: as §1, §2
# [1] = tested on: Rnf43^−/− and Znf3^−/− intestinal neoplasia in mice; conditions: Koo et al. (2015); cited from earlier work
Molecule,SIGNAL: NOISE RATIO HERCEPTIN (Herceptin),SIGNAL: NOISE RATIO FZD8 CRD (FZD8 CRD-Fc),FZD7 CRD-Fc phage-binding signal (FZD7 CRD-Fc),FZD7 CRD-Fc S/N (FZD7 CRD-Fc),HERCEPTIN S/W (Herceptin),HERCEPTIN S/N (Herceptin),other results
5 (PCSVICLPDWSSLLFI) [compound 5],1.0,1.5,,,,,SIGNAL: NOISE RATIO FZD7 CRD (FZD7 CRD-Fc): 22.7
15 (FWMQLQDGFAIWFP) [compound 15],1.7,2.9,,,,,
16 (PCSVICLPDWSSLLFI) [compound 16],1.1,1.1,,,,,SIGNAL: NOISE RATIO FZD7 CRD (FZD7 CRD-Fc): 5.0
40 (AASDDLEFWCHVMY) [compound 40],,,3.2,60.5,0.0,1.4,
41 (AASDDLEFWCHVMY) [compound 41],,,3.0,59.6,0.0,1.3,
94 (LPADDLEFWCHVMY) [compound 94],,,0.1,2.8,0.0,1.2,
Cc1cc(-c2ccc(CC(=O)Nc3ccc(-c4cccnc4)cc3)cc2)ccn1 [C59],,,,,,,adverse effects on adjacent intestinal crypts [1]: no significant adverse effects; growth of intestinal neoplasia [1]: prevents the growth
